The text below walks through data of ChEMBL document CHEMBL1126368, “Carbocyclic phosphonate analogs of 2,3-dideoxyadenosine-5-monophosphate as substrates of 5-phosphoribosyl-1-pyrophosphate (PRPP) synthetate” (Bioorg Med Chem Lett, 1992).

A short description of data set [1]: Ratio (FA) of Vmax/Km of AMP to that of compound.
The nature of data set [2]: Ratio (FA) of Vmax/Km of the compound.
Substrate in data set [3]: Nc1ncnc2c1ncn2[C@H]1CC[C@@H](CC(F)(F)P(=O)(O)O)C1
The experiment in a line: (§1) Vmax as a substrate for Pyrophosphate Synthetase (PRPP). The settings on record: Escherichia coli.

Substrate in data set [4]: Nc1ncnc2c1ncn2[C@H]1CC[C@@H](CCP(=O)(O)O)C1
The data set is described as §1. The settings on record: Escherichia coli.

Substrate in data set [5]: Nc1ncnc2c1ncn2CCOCP(=O)(O)O
The data set is described as §1. The settings on record: Escherichia coli.

Substrate in data set [6]: Nc1ncnc2c1ncn2[C@@H]1C[C@H](CCP(=O)(O)O)C[C@@H]1O
Described as §1. The settings on record: Escherichia coli.

Substrate in data set [7]: Nc1ncnc2c1ncn2C1O[C@H](COP(=O)(O)O)[C@H](O)[C@@H]1O
The description is as §1. The settings on record: Escherichia coli.

Substrate in data set [8]: Nc1ncnc2c1ncn2CCCCCP(=O)(O)O
The data set is described as §1. The settings on record: Escherichia coli.

Substrate in data set [9]: Nc1ncnc2c1ncn2[C@H]1CC[C@@H](CCOP(=O)(O)O)C1
Described as §1. The settings on record: Escherichia coli.

Substrate in data set [10]: Nc1ncnc2c1ncn2C1CCC(COP(=O)(O)O)O1
Briefly: Km value as a substrate for 0.4 ug of Phosphribosyl Pyrophosphate Synthetase (PRPP) per assay. The settings on record: Escherichia coli.

Substrate in data set [11]: Nc1ncnc2c1ncn2C1CCC(COP(=O)(O)O)O1
Briefly: Vmax as a substrate for per mg of Pyrophosphate Synthetase (PRPP). The settings on record: Escherichia coli.

Substrate in data set [12]: Nc1ncnc2c1ncn2[C@H]1CC[C@@H](CCP(=O)(O)O)C1
Briefly: (§2) Km value as a substrate for Pyrophosphate Synthetase (PRPP). The settings on record: Escherichia coli.

Substrate in data set [13]: Nc1ncnc2c1ncn2[C@@H]1C[C@H](CCP(=O)(O)O)C[C@@H]1O
The description is as §2. The settings on record: Escherichia coli.

Substrate in data set [14]: Nc1ncnc2c1ncn2C1O[C@H](COP(=O)(O)O)[C@H](O)[C@@H]1O
The description is as §2. The settings on record: Escherichia coli.

Substrate in data set [15]: Nc1ncnc2c1ncn2CCCCCP(=O)(O)O
Described as §2. The settings on record: Escherichia coli.

Substrate in data set [16]: Nc1ncnc2c1ncn2[C@H]1CC[C@@H](CCOP(=O)(O)O)C1
Described as §2. The settings on record: Escherichia coli.

Substrate in data set [17]: Nc1ncnc2c1ncn2C1CCC(COP(=O)(O)O)O1
Briefly: Vmax as a substrate for 0.4 ug of Pyrophosphate Synthetase (PRPP) per assay. The settings on record: Escherichia coli.

On to `Nc1ncnc2c1ncn2CCCCCP(=O)(O)O`, for which the Ratio in data set [1] came out at 32.
Regarding `Nc1ncnc2c1ncn2[C@@H]1O[C@H](COP(=O)(O)O)[C@H](O)[C@@H]1O`, the Ratio in data set [1] came out at 13.
The same measure, in the same setting: as for `Nc1ncnc2c1ncn2[C@@H]1C[C@H](CCP(=O)(O)O)C[C@@H]1O`, the figure is 11; as for `Nc1ncnc2c1ncn2[C@H]1CC[C@@H](CCOP(=O)(O)O)C1`, 179.
Same read-out and setting: the result for `Nc1ncnc2c1ncn2[C@H]1CC[C@@H](CCP(=O)(O)O)C1` reads 63.
Consider `Nc1ncnc2c1ncn2C1CCC(COP(=O)(O)O)O1` (stereo unspecified), for which the Ratio in data set [2] was 1.

B1: Ribose-phosphate pyrophosphokinase 1 (Homo sapiens), P60891 (protein)
chain: MPNIKIFSGSSHQDLSQKIADRLGLELGKVVTKKFSNQETCVEIGESVRGEDVYIVQSGCGEINDNLMELLIMINACKIASASRVTAVIPCFPYARQDKKDKSRAPISAKLVANMLSVAGADHIITMDLHASQIQGFFDIPVDNLYAEPAVLKWIRENISEWRNCTIVSPDAGGAKRVTSIADRLNVDFALIHKERKKANEVDRMVLVGDVKDRVAILVDDMADTCGTICHAADKLLSAGATRVYAILTHGIFSGPAISRINNACFEAVVVTNTIPQEDKMKHCSKIQVIDISMILAEAIRRTHNGESVSYLFSHVPL
As a reminder, the Km is the substrate concentration at which the rate is half of its maximum. Consider B1, for which the Vmax is 0.07% in [3]; 3% in [4]; 0.2% in data set [5]; 7.4% in data set [6]; 45% in data set [7]; 7.5% in [8]. Also, the Vmax in data set [9] is 0.5%; in data set [11] it was 34.5 µM/h; in data set [17], 100%. Also, the Km in data set [10] was 290 µM; in data set [12], 550 µM; in [13], 240 µM; in data set [14], 1700 µM; in [15] it was 690 µM; in [16], 260 µM.
